IntAct's records for PubMed 26749241

B1: Succinate dehydrogenase assembly factor 1, mitochondrial (Homo sapiens), A6NFY7 (parent)
chain: MSRHSRLQRQVLSLYRDLLRAGRGKPGAEARVRAEFRQHAGLPRSDVLRIEYLYRRGRRQLQLLRSGHATAMGAFVRPRAPTGEPGGVGCQPDDGDSPRNPHDSTGAPETRPDGR
partner: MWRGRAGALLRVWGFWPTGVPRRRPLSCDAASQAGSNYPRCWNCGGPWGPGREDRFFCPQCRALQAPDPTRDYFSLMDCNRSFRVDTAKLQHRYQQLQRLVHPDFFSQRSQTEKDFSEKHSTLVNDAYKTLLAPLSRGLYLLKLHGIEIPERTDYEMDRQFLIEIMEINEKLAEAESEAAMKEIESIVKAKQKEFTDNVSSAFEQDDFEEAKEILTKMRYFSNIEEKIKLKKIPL
B2: Succinate dehydrogenase assembly factor 1, mitochondrial (Homo sapiens), A6NFY7 (parent)
chain: B1 chain
partner: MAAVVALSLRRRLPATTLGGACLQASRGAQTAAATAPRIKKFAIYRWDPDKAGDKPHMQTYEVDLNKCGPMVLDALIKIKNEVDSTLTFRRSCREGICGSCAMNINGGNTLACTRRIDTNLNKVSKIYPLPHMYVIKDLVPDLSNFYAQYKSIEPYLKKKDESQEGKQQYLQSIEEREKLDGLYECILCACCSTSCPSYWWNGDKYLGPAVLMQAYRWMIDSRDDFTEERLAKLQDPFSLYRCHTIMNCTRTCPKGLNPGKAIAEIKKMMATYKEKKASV
B3: Succinate dehydrogenase [ubiquinone] iron-sulfur subunit, mitochondrial (Homo sapiens), P21912 (parent)
chain: B2 partner
partner: B1 chain

Variants of: B1
Conditions: with hsc20_human HSCB

Row | Variant | effect of a mutation on the interaction
1 | MSRHSRLQRQVLSVFKDLLRAGRGKPGAEARVRAEFRQHAGLPRSDVLRIEYLYRRGRRQLQLLRSGHATAMGAFVRPRAPTGEPGGVGCQPDDGDSPRNPHDSTGAPETRPDGR [L14V;Y15F;R16K] | with no effect
2 | MSRHSRLQRQVLSLYRDLLRAGRGKPGAEARVRAEFRQHAGLPRSDVLRIEYLYPRGRRQLQLLRSGHATAMGAFVRPRAPTGEPGGVGCQPDDGDSPRNPHDSTGAPETRPDGR [R55P] | with no effect
3 | MSRHSRLQRQVLSLYRDLLRAGRGKPGAEARVRAEFRQHAGLPRSDVLRIEYLYRRRRRQLQLLRSGHATAMGAFVRPRAPTGEPGGVGCQPDDGDSPRNPHDSTGAPETRPDGR [G57R] | with no effect
4 | MSRHSRLQRQVLSLYRDLLRAGRGKPGAEARVRAEFRQHAGLPRSDVLRIEYAAARGRRQLQLLRSGHATAMGAFVRPRAPTGEPGGVGCQPDDGDSPRNPHDSTGAPETRPDGR [L53A;Y54A;R55A] | with no effect
5 | MSRHSRLQRQVLSAAADLLRAGRGKPGAEARVRAEFRQHAGLPRSDVLRIEYLYRRGRRQLQLLRSGHATAMGAFVRPRAPTGEPGGVGCQPDDGDSPRNPHDSTGAPETRPDGR [L14A;Y15A;R16A] | disrupting interaction strength
6 | MSRHSRLQRQVLSLYRDLLRAGRGKPGAEARVRAEFRQHAGLPRSDVLRIESLYRDGRRQLQLLRSGHATAMGAFVRPRAPTGEPGGVGCQPDDGDSPRNPHDSTGAPETRPDGR [Y52S;R56D] | decreasing interaction strength
7 | MSRHSRLQRQVLYLYRRLLRAGRGKPGAEARVRAEFRQHAGLPRSDVLRIEYLYRRGRRQLQLLRSGHATAMGAFVRPRAPTGEPGGVGCQPDDGDSPRNPHDSTGAPETRPDGR [S13Y;D17R] | disrupting interaction strength

Variants of: B2
Conditions: with sdhb_human SDHB

Row | Variant | effect of a mutation on the interaction
8 | MSRHSRLQRQVLSLYRDLLRAGRGKPGAEARVRAEFRQHAGLPRSDVLRIEYLYRAAAAQLQLLRSGHATAMGAFVRPRAPTGEPGGVGCQPDDGDSPRNPHDSTGAPETRPDGR [R56A;G57A;R58A;R59A] | decreasing interaction strength
9 | MSRHSRLQRQVLSLYRDLLRAGRGKPGAEARVRAEFRQHAGLPRSDVLRIEYLYRRGRRQAQLAASGHATAMGAFVRPRAPTGEPGGVGCQPDDGDSPRNPHDSTGAPETRPDGR [L61A;L64A;R65A] | decreasing interaction strength
10 | MSRHSRLQRQVLSLYRDLLRAGRGKPGAEARVRAEFRQHAGLPRSDVLRIEYAAAAAAAQLQLLRSGHATAMGAFVRPRAPTGEPGGVGCQPDDGDSPRNPHDSTGAPETRPDGR [L53A;Y54A;R55A;R56A;G57A;R58A;R59A] | disrupting interaction strength
11 | MSRHSRLQRQVLSLYRDLLRAGRGKPGAEARVRAEFRQHAGLPRSDVLRIEYAAARGRRQAQLAASGHATAMGAFVRPRAPTGEPGGVGCQPDDGDSPRNPHDSTGAPETRPDGR [L53A;Y54A;R55A;L61A;L64A;R65A] | disrupting interaction strength

Variants of: B2
Conditions: with sdhb_human SDHB
Remark: another data set of the same source

Row | Variant | effect of a mutation on the interaction
12 | MSRHSRLQRQVLSAAADLLRAGRGKPGAEARVRAEFRQHAGLPRSDVLRIEYLYRRGRRQLQLLRSGHATAMGAFVRPRAPTGEPGGVGCQPDDGDSPRNPHDSTGAPETRPDGR [L14A;Y15A;R16A] | with no effect
13 | MSRHSRLQRQVLSLYRDLLRAGRGKPGAEARVRAEFRQHAGLPRSDVLRIEYLYRRRRRQLQLLRSGHATAMGAFVRPRAPTGEPGGVGCQPDDGDSPRNPHDSTGAPETRPDGR [G57R] | disrupting interaction strength
14 | MSRHSRLQRQVLSLYRDLLRAGRGKPGAEARVRAEFRQHAGLPRSDVLRIEYLYPRGRRQLQLLRSGHATAMGAFVRPRAPTGEPGGVGCQPDDGDSPRNPHDSTGAPETRPDGR [R55P] | decreasing interaction strength
15 | MSRHSRLQRQVLSLYRDLLRAGRGKPGAEARVRAEFRQHAGLPRSDVLRIEYAAARGRRQLQLLRSGHATAMGAFVRPRAPTGEPGGVGCQPDDGDSPRNPHDSTGAPETRPDGR [L53A;Y54A;R55A] | decreasing interaction strength

Variants of: B3
Conditions: with sdhf1_human SDHAF1, A6NFY7

Row | Variant | effect of a mutation on the interaction
16 | MAAVVALSLRRRLPATTLGGACLQASRGAQTAAATAPRIKKFAIYRWDPDKAGDKPHMQTYEVDLNKCGPMVLDALIKIKNEVDSTLTFRRSCREGICGSCAMNINGGNTLACTRRIDTNLNKVSKIYPLPHMYVIKDLVPDLSNFYAQYKSIEPYLKKKDESQEGKQQYAAAIEEREKLDGLYECILCACCSTSCPSYWWNGDKYLGPAVLMQAYRWMIDSRDDFTEERLAKLQDPFSLYRCHTIMNCTRTCPKGLNPGKAIAEIKKMMATYKEKKASV [L171A;Q172A;S173A] | increasing interaction strength
17 | MAAVVALSLRRRLPATTLGGACLQASRGAQTAAATAPRIKKFAIYRWDPDKAGDKPHMQTYEVDLNKCGPMVLDALIKIKNEVDSTLTFRRSCREGICGSCAMNINGGNTLACTRRIDTNLNKVSKIYPLPHMYVIKDLVPDLSNFYAQYKSIEPYLKKKDESQEGKQQYLQSIEEREKLDGLYECILCACCSTSCPAAAAAGDKYLGPAVLMQAYRWMIDSRDDFTEERLAKLQDPFSLYRCHTIMNCTRTCPKGLNPGKAIAEIKKMMATYKEKKASV [S198A;Y199A;W200A;W201A;N202A] | disrupting interaction strength
18 | MAAVVALSLRRRLPATTLGGACLQASRGAQTAAATAPRIKKFAIYRWDPDKAGDKPHMQTYEVDLNKCGPMVLDALIKIKNEVDSTLTFRRSCREGICGSCAMNINGGNTLACTRRIDTNLNKVSKIYPLPHMYVIKDLVPDLSNFYAQYKSIEPYLKKKDESQEGKQQYLQSIEEREKLDGAAACILCACCSTSCPSYWWNGDKYLGPAVLMQAYRWMIDSRDDFTEERLAKLQDPFSLYRCHTIMNCTRTCPKGLNPGKAIAEIKKMMATYKEKKASV [L183A;Y184A;E185A] | disrupting interaction strength
19 | MAAVVALSLRRRLPATTLGGACLQASRGAQTAAATAPRIKKFAIYRWDPDKAGDKPHMQTYEVDLNKCGPMVLDALIKIKNEVDSTLTFRRSCREGICGSCAMNINGGNTLACTRRIDTNLNKVSKIYPLPHMYVIKDLVPDLSNAAAAAASAEPYLKKKDESQEGKQQYLQSIEEREKLDGLYECILCACCSTSCPSYWWNGDKYLGPAVLMQAYRWMIDSRDDFTEERLAKLQDPFSLYRCHTIMNCTRTCPKGLNPGKAIAEIKKMMATYKEKKASV [F146A;Y147A;Q149A;Y150A;K151A;I153A] | disrupting interaction strength
20 | MAAVVALSLRRRLPATTLGGACLQASRGAQTAAATAPRIKKFAIYRWDPDKAGDKPHMQTYEVDLNKCGPMVLDALIKIKNEVDSTLTFRRSCREGICGSCAMNINGGNTLACTRRIDTNLNKVSKIYPLPHMYVIKDLVPDLSNAYAQYKSIEPYLKKKDESQEGKQQYLQSIEEREKLDGLYECILCACCSTSCPSYWWNGDKYLGPAVLMQAYRWMIDSRDDFTEERLAKLQDPFSLYRCHTIMNCTRTCPKGLNPGKAIAEIKKMMATYKEKKASV [F146A] | decreasing interaction strength
21 | MAAVVALSLRRRLPATTLGGACLQASRGAQTAAATAPRIKKFAIYRWDPDKAGDKPHMQTYEVDLNKCGPMVLDALIKIKNEVDSTLTFRRSCREGICGSCAMNINGGNTLACTRRIDTNLNKVSKIYPLPHMYVIKDLVPDLSNFYAQYKSIEPYLKKKDESQEGKQQYLQSIEEAEAAAGLYECILCACCSTSCPSYWWNGDKYLGPAVLMQAYRWMIDSRDDFTEERLAKLQDPFSLYRCHTIMNCTRTCPKGLNPGKAIAEIKKMMATYKEKKASV [R177A;K179A;L180A;D181A] | increasing interaction strength
